System: Ovalbumin-specific OTII T cells
Test: Example 5: adoptive transfer of ovalbumin-specific OTII T cells, Foxp3 expression
Type: in vivo, mice
Conditions: OTII T cells adoptively transferred prior to treatment
Procedure: However, expansion of antigen-specific Treg can be more desirable than expansion of total Treg. The ability of ImmTOR plus antigen combined with IL-2 mutein to induce and/or expand antigen-specific Treg was evaluated. Ovalbumin-specific OTII T cells were adoptively transferred into mice prior to treatment with ovalbumin and ImmTOR and/or IL-2 mutein.

B1: ovalbumin (protein, UniProt P01012 2-386, looked up)
Ovalbumin: GSIGAASMEFCFDVFKELKVHHANENIFYCPIAIMSALAMVYLGAKDSTRTQINKVVRFDKLPGFGDSIEAQCGTSVNVHSSLRDILNQITKPNDVYSFSLASRLYAEERYPILPEYLQCVKELYRGGLEPINFQTAADQARELINSWVESQTNGIIRNVLQPSSVDSQTAMVLVNAIVFKGLWEKAFKDEDTQAMPFRVTEQESKPVQMMYQIGLFRVASMASEKMKILELPFASGTMSMLVLLPDEVSGLEQLESIINFEKLTEWTSSNVMEERKIKVYLPRMKMEEKYNLTSVLMAMGITDVFSSSANLSGISSAESLKISQAVHAAHAEINEAGREVVGSAEAGVDAASVSEEFRADHPFLFCIKHIATNAVLFFGRCVSP
notes: model antigen
**Q.** For B1, which “percentage of Foxp3+OTII cells” value is on record?
**A.** ~6%
